These results are taken from the DeepSol protein solubility set.

The data set is described as follows: soluble on expression in E. coli; label from the status in PepcDB or PDB records.
With “MEEELRVRLNDHQVSKVFPVKPKSTANVVAVMEELVARRKLMKCVSNMEEGELGMLLGFLQRYCTVQRYSGLLMGLTKKVLETRAEDIKGKNEFKGLLRNLKREVNQEIRIQQSLLEIQGVIAPLMRIAGRS”, the “soluble on expression in E. coli” value is on record as “not soluble”.

For the sequence “MSLSNGELAILVFGYPETMANQVIAYFQEFGTILEDFEVLRKPQAMTVGLQDKQFVPIFSGNSWTKITYDNPASAVDALLENGAVFNGVLLGVIPYTKDAVERLQKRKLTSSEDIGSGITTAAAETKHKDQGTIENDIPSQYMAKLDIKDGSNLFISTNTTSGTKVDPKKEQKKGVVGTVLRYFFGFNEGHHHHHH”, the “soluble on expression in E. coli” value was “soluble”.

Turning to “DMGESVKIIDLARQMITLSGLKPNTPEQPDGDIEILITGLRPGEKLYEELLIGDNVRKTGHPRIMTANETMLPWHELSALLDRIRAACDRYDQQAIRT”, the “soluble on expression in E. coli” value was “not soluble”.

Turning to “MSCVQQQRRSTGLRIAERLNKYITLPNRHSFTVDSKDVFQRGQVLSYIRSKAPFLLEHISEAKERLITVTSRGLMIIYENDDHGLVIDLRSARNVLCTADRSKKQRHFRCHIKIRMQRGNVHLFVGHNDVHKWTCAIMRAAGKCLPSTEPRDDGSLNVAMMTAVEDSGIFEEMSSTSSASYDYDEDDEVDEVKPTAIEQIPLPHVSVRSLRQKLEKELVLKPKEQVLAEQQHKANCDEPSFVSEIFCTPRAVFSDETVVLLEPTNARERREYEAQADRENQWWTRSLRC”, the “soluble on expression in E. coli” value is on record as “not soluble”.

On to “MKKIIALMLFLTFFAHANDSEPGSQYLKAAEAGDRRAQYFLADSWFSSGDLSKAEYWAQKAADSGDADACALLAQIKITNPVSLDYPQAKVLAEKAAQAGSKEGEVTLAHILVNTQAGKPDYPKAISLLENASEDLENDSAVDAQMLLGLIYANGVGIKADDDKATWYFKRSSAISRTGYSEYWAGMMFLNGEEGFIEKNKQKALHWLNLSCMEGFDTGCEEFEKLTNGLEHHHHHH”, for which the “soluble on expression in E. coli” value was “not soluble”.

As to “MSLTQTILVIDDDAAVRGSFQLVLGEIGCVVRVAEDGLQGIAMAREERPDLIFLDLKMPGIDGVETMRRLLAMDPTFNIYIVTAFSQEYLDDLKQAQAEGMTFQLANKPLSSTQIRHIARSVRSLSNVSKDNHRISLTLYVVSVNPEIQKVVDQLSNVLAATYRAGFWVLNVVEVLGMPEKALEKDVFATPMLVREVPEPVLKLLGDLSRMHSVLSAITAENGHGAGTEGHHHHHH”, the “soluble on expression in E. coli” value is listed as “soluble”.

With “MSLRIKDIARLANVSVGTVDRVLHGRSGVSEASRKRVEEILKQLDYQPNMYASALASNKKYTFACLLPKHLEGEYWTDVQKGIREAVTTYSDFNISANITHYDPYDYNSFVATSQAVIEEQPDGVMFAPTVPQYTKGFTDALNELGIPYIYIDSQIKDAPPLAFFGQNSHQSGYFAARMLMLLAVNDREIVIFRKIHEGVIGSNQQESREIGFRQYMQEHHPACNILELNLHADLNIEDSRMLDDFFREHPDVKHGITFNSKVYIIGEYLQQRRKSDFSLIGYDLLERNVTCLKEGTVSFLIAQQPELQGFNSIKTLCDHLIFRKEVACTNYMPIDLLTKENIDYYHSEGHHHHHH”, the “soluble on expression in E. coli” value is recorded as “soluble”.

Turning to “SLPTLVTTQASDIDGSTLLSSQKGSGLGDCDSDARWTWDGRRFVPTSTSTSGLCRLVAAGGAWELPTLVTEVKSSP”, the “soluble on expression in E. coli” value was “soluble”.

For the sequence “MGSDKIHHHHHHMIVMDAETLKELIRDDFEVINANETVSKLFPMLEKLDRDKANAILVEEDGKIVGVVREKDLIRGSVLKNPHETKVKSLLVRTGKIDLNELDPYKVARRFVEDSTPFVIVQIDDKRVGVIYINDFLSALKDEFKDVKVREVMNPEVITVRRFDSAAKALSVMRTHGIDRVVVVDENNKVIGILTGKDVVDRVISPRKRARMGDSSGEKEKTLSIMVESIMSSPVVSVSRNDSVAEVIDLMVENRISSVVVTRDGLPDGIVIKKDILEYYLKKESRKEFNVQISTADITLDEFDREAILEDVEKLMRKFSDFLGESFLFIYIKRHKEHFRNLPLIHVRLKLASEKGNFMVSGESWGVEYAVHVALKKLEREILKEKELLEDKRMIKRFYEEVLEY”, the “soluble on expression in E. coli” value is recorded as “not soluble”.

Regarding “MGSDKIHHHHHHMYIGCNWSKALKFLLEKDEVKIDYIKAGAYGDFENEFSTMRSMKPILIHGLGKFERTGMKDINLVDFDRANSIIKRCSSPHFGIHLEIKNSDMYEGMRDENIYEYMCKQIQTFKKNIEVPLLLENVPDSPIEHTVFDCYPYFQPKKLTKLFLDNNVDFLLDLTHAKITSKYHKIDVHEYLNGLPLERVREIHVNGSGYDEEGFPMDTHSSMEKEDYDLLRWVLTYSKPYVVTLEYAGTKKEKEADIIASLKTQLREIQNIIISR”, the “soluble on expression in E. coli” value was “not soluble”.

Consider “MPSNCRRFEGKVAIVTAATKGIGLAIAERLLDEGASVVIGSRNQKNVDEAIEYLKNKGLTKVAGIAGHIASTDDQKKLVDFTLQKFGKINILVNNHGINPAFGHILEVSDQVWDKLFEVNVKAGFQMTKLVHPHIAKEGGGAIIFNASYSAYKSPPGIAAYGVTKTTLVGLTRALAMGLAKDNIRVNGIAPGVIKTKMSQVLWDGGEDAEKELTDIQEIALGRLGVPDDCAGTVAYLASDDSSYITGEMIIIAGGVQARL”, for which the “soluble on expression in E. coli” value is reported as “not soluble”.

As for “MKVGIVLNPHAGGGFDDLKRRVVVRVLKKLDGEFVTADKVAELLGIEAERVKVKETNTRLDTVNLVKALDGNVDVIAVFGGDGTVSDAASAKPQTPLLCIGIGTTNVSPALCPPDFDRLEEVEMRGLVVKFGGEERVAFNDVVVGSTILSTVDGKRVQVDARRYMRGEKVIATPRKFRARVEVGERVVEGVFGNIFVAMTDRRFLGKGIAGGASLSAFLGFKGVVACVSEGIVVSTYTKEDLRRVEPIVTSTISFDDEVVKIDADEVVSCDGNPLGVGRAEVAIEDGVVRVLKPFKEEE”, the “soluble on expression in E. coli” value was “soluble”.

For the sequence “MSLTKKDVIKLLEQIATYMELKGENTFKISAYRKAAQSLELDERPLDEISDVTELKGIGKGVAEVINDYRETGESQYLQQLQEEVPEGLIPLLKIQGLGSKKIAKLYKELNIVDKASLQVACENGKVSELSGFAKKTEQNILEAVKQLGAKKDRYPIDQMRRLNQEIIDYIDTLNYIDQYSSAGSFRRFKEMSKDLDFIISTDNPKAVQQQLLNIPNKVKEVAVGNTKVSLELAYDDETIGVDFRLIEPRAFYHTLQHFTGSKEHNIRIRQLAKARDEKVSEYGIEQADGTLIQYDSEAKIYEHFNVNFIPPAMREDGSEFDKDLSNIITLDDINGDIHMHTTYSDGAFSIRDMVEANIAKGYKFMVITDHSQSLRVANGLQVERLLRQNEEIKALDKEYSEIDIYSGTEMDILPDGSLDYDDEILAQLDYVIGAIHQSFNQSEEQIMERLANACRNPYVRHIAHPTGRIIGRRDGYKPNIEQLMALAEETNTVLEINANPHRLDLNAEIVRKYPNVKLTINTDAHHTNHLDFMNYGVATAQKGFVTKDRVINALSREAFKDFIENNIKLKKEGHHHHHH”, the “soluble on expression in E. coli” value is reported as “soluble”.

With “RSEMHEECSPDFTAQFHLAAEHTAHIFQHLPETEPDDFQTALDTLRGELDTLRTHSSGTQSHILLQQLQLIARQLEPYYRAYRQIPHRQPQNAA”, the “soluble on expression in E. coli” value is “not soluble”.

With “MSLKEEEIQNDFMFEEYHKGDKIVLNSVNGGSKTLIRTDKGFVVEGEEGKVLMFDFFGTFCTPCKEEALDLSKLWKNNSSKFIIIGLTHFEDVSDETVKKFAGDYGAYYFLSNGSSNDRIIAQILKDIDYQNMEQLPFKVVLKNGIYQKISDYWNNNTPTNFYLGKIPTELMQEDLNKIYKGKEGHHHHHH”, the “soluble on expression in E. coli” value is on record as “soluble”.

For the sequence “MVVSDLKLRDMNEADRHAVGFVGFAAWRAGDAFDASYLDSYVVERVRGEFESFAKSPTGDVVVAEIDGVVVGWGACDAKPHHISDLWVDPNWQGKGIGKALIVHFLDRMRAEGLPLATIDTHARNRAAIGLYERCGFEIVWRGMEWSDIMKVELEKVKLEQKLSP”, the “soluble on expression in E. coli” value is given as “soluble”.

As for “GPGSMSKQKKEVVINLDEVDEQTGYKSAELFVWLKFDETYLQKPEDDREADVDAWVDAFCEQMEEEGMNYDRNFVRSVCVLGIYAGARDEFQQRMGSGKAVYPNGDRYDGEFFEGKKHGTGRYCFVSRGKSECDRIVEKEMQKLGGAVPDEQFITNVAEKYKISRQIVSWIIEYGVYPCYHGDYVRGVRTGQGLMKNKDGTVYKGDFLANKRHGQGMFYYLNGDIFSGTWRNGLKHGYGTYHFAGGSEYRGSWVDGVFTQGQWIFPDGTYYEGLFNKKNRPCDDAASMHFPSIKMAQTGVFRRGVWAPSSALQVCEETPVDGMSWID”, the “soluble on expression in E. coli” value is “soluble”.

In the case of “MGSDKIHHHHHHMSWSSAIFTGAVVHQRHRPKKHSLRYQVFCLLVDLDELPAIDKSLWLLGYNRRAILRIDDRDHGLGIPGGLKAWVANHVERAGLNTEGMKVSMLCYPRMFGYVFNPLTLYYCYGPSGTLLALLYEVENTFHERHTYVIPASVEEDGAIRHACAKQMYVSPFMPMECLYRFKIVPPGETVTVAINEADEQGPLLYASFCGKRRTLDDRALAKVLVRYPLMTLKVMGAIHWEALKLWVKGVPLHRHRKAQNPIASSIIPPEAANARSPS”, the “soluble on expression in E. coli” value is reported as “not soluble”.

With “MSLTDLKEVARLAGVSRATAARAFASPEVVRAETRERVFVAARELGFRPNRLGRQLRLQTTNLIGVIVPNLLNPVFAEQFQAMERAARARGYNLLLATTDYSAERESAVVEELLRQRVDGLVLTVTDAEHNRVLESLAIEDTPFVLAYHQTDNEEYSAVSVDNRAGMALATRYLIDAGHRCIAMVAGPVMQSDRARLRYEGYRDAMNEGGLEARPVIEMPAHTNADFAALKPLLRGPTAPSALVCSNDLLAISLIAELRRNGWGVPERLSVIGFDGIALGTQMHPTLCSVVQPIAELAHIVIDQLLARIAGAVPVSHCLPCHIRPGESTQPYKEMLHAQPEGHHHHHH”, the “soluble on expression in E. coli” value is on record as “soluble”.

For the sequence “MSLEQHGNVVSVGLKLYNEILKETITRFKERRIEKKHSVNVEIENPPGRFFIPEDYVQNPVERLRLYRRLASSLDEEDLEEILEEMKDRFGEPPEEVKLLVDYFRLRVRASKLGIKKIRFDHSMVEIFPSRNSPFLNHPRYDRRSGSVVLYTRKDPVEFLMDMLKKEGHHHHHH”, the “soluble on expression in E. coli” value is “soluble”.

For “MTTTPANVLASVDLGSNSFRLQICENNNGQLKVIDSFKQMVRFAAGLDEQKNLSAASQEQALDCLAKFGERLRGFRPEQVRAVATNTFRVAKNIADFLPKAEAALGFPIEIIAGREEARLIYTGVIHTLPPGGGKMLVIDIGGGSTEFVIGSTLNPDITESLPLGCVTYSLRFFQNKITAKDFQSAISAARNEIQRISKNMRREGWDFAVGTSGSAKSIRDVLAAEMPQEADITYKGMRALAERIIEAGSVKKAKFENLKPERIEVFAGGLAVMMAAFEEMKLDRMTVTEAALRDGVFYDLIGRGLNEDMRGQTVAEFQHRYHVSLNQAKRTAETAQTFMDSLCHAKNVTVQELALWQQYLGRAAALHEIGLDIAHTGYHKHSAYILENADMPGFSRKEQTILAQLVIGHRGDMKKMSGIIGTNEMLWYAVLSLRLAALFCRSRQDLSFPKNMQLRTDTESCGFILRIDREWLERHPLIADALEYESVQWQKINMPFKVEAV”, the “soluble on expression in E. coli” value is listed as “not soluble”.

For the sequence “MYCTIDDLLGQIDKSKLIELTNDRADPAVDENGQEIIHEGNANSAIEAATAVVNTYIAMRYPVPLSPVPKIVSKLTADIAIYNLFTRHYNDEDNVFVRRYRDAIRLLEKIAADEVKLTANESGIRTYARRKVFGEDFRRMYD”, the “soluble on expression in E. coli” value is given as “not soluble”.

Take “SNAMSDSDAMTDPNAVSYSNAIVVLCTAPDEASAQNLAAQVLGEKLAACVTLLPGATSLYYWEGKLEQEYEVQLLFKSNTDHQQALLTYIKQHHPYQTPELLVLPVRDGDKDYLSWLNASLL”: the “soluble on expression in E. coli” value is given as “soluble”.

Take “GSMEPAMEPETLEARINRATNPLNKELDWASINGFCEQLNEDFEGPPLATRLLAHKIQSPQEWEAIQALTVLETCMKSCGKRFHDEVGKFRFLNELIKVVSPKYLGSRTSEKVKNKILELLYSWTVGLPEEVKIAEAYQMLKKQGIVKS”: the “soluble on expression in E. coli” value was “soluble”.
